Experimental data taken from patent US20250250357A1 (NANJING ZAIMING PHARMACEUTICAL, published 2025).

T1: monkey MSLN on HEK293T-monkey MSLN recombinant cells (monkey)
T1 construct: Full-length precursor as transfected; processing on the cell is not described; also called HEK293-monkey MSLN
T1 chain: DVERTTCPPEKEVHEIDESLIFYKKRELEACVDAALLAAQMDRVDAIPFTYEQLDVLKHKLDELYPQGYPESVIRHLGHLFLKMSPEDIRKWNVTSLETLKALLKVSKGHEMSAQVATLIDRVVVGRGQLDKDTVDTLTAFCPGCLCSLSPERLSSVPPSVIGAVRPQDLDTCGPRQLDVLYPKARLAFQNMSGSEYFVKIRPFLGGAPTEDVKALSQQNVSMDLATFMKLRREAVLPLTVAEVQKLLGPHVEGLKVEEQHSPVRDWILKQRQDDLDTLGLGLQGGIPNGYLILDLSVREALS


Tests used:
[1] = molecular target: T2, human MSLN-R3 on HEK293T-hMSLN-R3 recombinant cells (human, UniProt Q13421 487-606); experiment: FACS, HEK293T-hMSLN-R3 cells
T2 construct: the C-terminal limit is uncertain; also called human MSLN-R3 membrane protein

[2] = molecular target: T1, monkey MSLN on HEK293T-monkey MSLN …; experiment: FACS, HEK293T-monkey MSLN cells
[3] = molecular target: T3, human MSLN-R3-his protein (human, UniProt Q13421 487-598); experiment: ELISA on coated antigen, antibody 2 nM
T3 construct: it is put last here; also called human MSLN-R3 protein; hMSLN-R3-his; not shown: His tag

[4] = molecular target: T3, human MSLN-R3-his protein; experiment: ELISA on coated antigen, antibody 20 nM
[5] = molecular target: T3, human MSLN-R3-his protein; experiment: ELISA on coated antigen, antibody 0.2 nM
[6] = molecular target: T3, human MSLN-R3-his protein; experiment: ELISA on coated antigen, antibody 200 nM
[7] = molecular target: T3, human MSLN-R3-his protein; experiment: ELISA on coated antigen, antibody 0.02 nM
[8] = molecular target: T3, human MSLN-R3-his protein; experiment: ELISA on coated antigen, antibody 0.002 nM
[9] = molecular target: T3, human MSLN-R3-his protein; experiment: ELISA on coated antigen, antibody 0.0002 nM
[10] = molecular target: T3, human MSLN-R3-his protein; experiment: ELISA on coated antigen, no antibody (blank, column 'none')
[11] = molecular target: T4, human MSLN-hFc recombinant protein (human, UniProt Q13421 296-580); experiment: SPR (Biacore 8K), MSLN-hFc captured, antibody injected
T4 construct: Captured by an anti-human IgG antibody on the chip; also called human MSLN protein; Acro MSN-H5253

[12] = molecular target: T5, human MSLN-FL-his protein (human, UniProt Q13421 296-580); experiment: ELISA, coated antigen, antibody 2 nM
T5 construct: Made in HEK293E cells, purified on nickel column; also called hMSLN-FL-his; human MSLN full-length protein; not shown: His tag

[13] = molecular target: T5, human MSLN-FL-his protein; experiment: ELISA, coated antigen, antibody 20 nM
[14] = molecular target: T5, human MSLN-FL-his protein; experiment: ELISA, coated antigen, antibody 0.2 nM
[15] = molecular target: T5, human MSLN-FL-his protein; experiment: ELISA, coated antigen, antibody 200 nM
[16] = molecular target: T5, human MSLN-FL-his protein; experiment: ELISA, coated antigen, antibody 0.02 nM
[17] = molecular target: T5, human MSLN-FL-his protein; experiment: ELISA, coated antigen, antibody 0.002 nM
[18] = molecular target: T5, human MSLN-FL-his protein; experiment: ELISA, coated antigen, antibody 0.0002 nM
[19] = molecular target: T5, human MSLN-FL-his protein; experiment: ELISA, coated antigen, no antibody (blank)

T2 sequence (Q13421 495-614): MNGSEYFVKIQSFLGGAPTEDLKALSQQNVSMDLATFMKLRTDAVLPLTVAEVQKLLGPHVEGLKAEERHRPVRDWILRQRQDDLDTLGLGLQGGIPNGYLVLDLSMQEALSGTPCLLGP
T4 sequence (Q13421 other isoform, or with tags, fused parts or gaps): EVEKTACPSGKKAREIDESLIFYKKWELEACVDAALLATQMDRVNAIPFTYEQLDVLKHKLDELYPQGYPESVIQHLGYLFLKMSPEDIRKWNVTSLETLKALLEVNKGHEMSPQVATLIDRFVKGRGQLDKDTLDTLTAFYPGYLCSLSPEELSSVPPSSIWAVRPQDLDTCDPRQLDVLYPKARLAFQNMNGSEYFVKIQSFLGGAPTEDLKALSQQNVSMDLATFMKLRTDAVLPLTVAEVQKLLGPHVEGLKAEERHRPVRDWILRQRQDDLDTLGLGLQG
T3 sequence (Q13421 495-606): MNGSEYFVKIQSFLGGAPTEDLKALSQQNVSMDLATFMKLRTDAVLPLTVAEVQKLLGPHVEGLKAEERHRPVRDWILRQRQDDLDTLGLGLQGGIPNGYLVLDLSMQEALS
T5 sequence (Q13421 other isoform, or with tags, fused parts or gaps): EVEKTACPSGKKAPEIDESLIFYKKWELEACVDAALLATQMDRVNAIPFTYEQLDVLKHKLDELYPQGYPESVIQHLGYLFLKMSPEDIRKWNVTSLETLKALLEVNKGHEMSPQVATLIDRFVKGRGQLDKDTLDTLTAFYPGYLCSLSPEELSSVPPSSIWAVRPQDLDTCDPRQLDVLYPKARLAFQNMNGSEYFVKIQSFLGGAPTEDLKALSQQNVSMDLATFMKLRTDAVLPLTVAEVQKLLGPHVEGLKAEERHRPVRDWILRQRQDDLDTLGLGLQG

EC50 [1] | Maximum_MFI [1] | Maximum_MFI [2] | binding result [2] | Binder | further results
– | 1410 MFI | 357 MFI | no binding | F3.80.22-H4 (scFv, not shown: small tags and cut ends, also called S009-F3.80.22 humanized antibody VL1 + VH4) scFv: DIVMTQTPLSLPVTPGEPASISCRSSQSLEHNNGNTYLHWFLQKPGQSPQLLIYKVSNRFSGVPDRFSGSGSGTDFTLKISRVEAEDVGVYYCSQSTHVPFTFGQGTKLEIKGGGGSGGGGSGGGGSEVQLVQSGAEVKKPGATVKISCKASGYTFTDYEIHWVQQAPGKGLEWMGAFDPEIGGSAYNQKFKDRVTITADKSSSTAYMELSSLRSEDTAVYYCTDYYGSSSGYFDVWGTGTTVTVSS | –
2.14 nM | 1700 MFI | 278 MFI | no binding | F3.80.22-H1 (scFv, not shown: small tags and cut ends, also called S009-F3.80.22 humanized antibody VL1 + VH1) scFv: DIVMTQTPLSLPVTPGEPASISCRSSQSLEHNNGNTYLHWFLQKPGQSPQLLIYKVSNRFSGVPDRFSGSGSGTDFTLKISRVEAEDVGVYYCSQSTHVPFTFGQGTKLEIKGGGGSGGGGSGGGGSEVQLVQSGAEVKKPGATVKISCKVSGYTFTDYEIHWVQQAPGKGLEWMGAFDPEIGGSAYNQKFKDRVTITADKSTDTAYMELSSLRSEDTAVYYCTDYYGSSSGYFDVWGQGTTVTVSS | –
10.2 nM | 1400 MFI | 317 MFI | no binding | F3.80.22-H8 (scFv, not shown: small tags and cut ends, also called S009-F3.80.22 humanized antibody VL1a + VH4) scFv: DIVMTQTPLSLPVTPGEPASISCRSSQSLEHNDGNTYLHWFLQKPGQSPQLLIYKVSNRFSGVPDRFSGSGSGTDFTLKISRVEAEDVGVYYCSQSTHVPFTFGQGTKLEIKGGGGSGGGGSGGGGSEVQLVQSGAEVKKPGATVKISCKASGYTFTDYEIHWVQQAPGKGLEWMGAFDPEIGGSAYNQKFKDRVTITADKSSSTAYMELSSLRSEDTAVYYCTDYYGSSSGYFDVWGTGTTVTVSS | –

The next lines start with the binder.

Binder | EC50 [1] | Maximum_MFI [1] | Maximum_MFI [2] | binding result [2] | further results
F3.80.22-H17 (scFv, not shown: small tags and cut ends, also called S009-F3.80.22 humanized antibody VH1 + VL1a) scFv: EVQLVQSGAEVKKPGATVKISCKVSGYTFTDYEIHWVQQAPGKGLEWMGAFDPEIGGSAYNQKFKDRVTITADKSTDTAYMELSSLRSEDTAVYYCTDYYGSSSGYFDVWGQGTTVTVSSGGGGSGGGGSGGGGSDIVMTQTPLSLPVTPGEPASISCRSSQSLEHNDGNTYLHWFLQKPGQSPQLLIYKVSNRFSGVPDRFSGSGSGTDFTLKISRVEAEDVGVYYCSQSTHVPFTFGQGTKLEIK | 4.41 nM | 1790 MFI | 356 MFI | no binding | –
S009-F7.69.8 (antibody, human IgG1, kappa, V domains shown, Human-murine chimeric antibody, human IgG1 heavy and kappa light constant regions) VH: EVHLQQSGPELVKPGASVRIPCKASGYTFTDYNMDWVKQSHGKSLEWIGDINPDNGGTIYTQKFKGKATLTVDKSSSTAYMELRSLTSEDTAVYYCARRLHYYGSSGLDYWGQGTTLTVSS VL: DIQMTQSPASLSAYVGETVTITCRASGNIHNYLAWYQQKQGKSPQLLVYNAKTLADGVPSRFSGSGSGTQYSLKINSLQPEDFGSYYCQHFWSTVWTFGGGTKLEIKR | – | – | – | – | OD450 [3]: 2.54 OD; OD450 [4]: 2.55 OD; OD450 [5]: 1.96 OD; OD450 [6]: 2.56 OD; OD450 [7]: 0.38 OD; OD450 [8]: 0.11 OD; OD450 [9]: 0.06 OD; OD450 [10]: 0.07 OD
F3.80.22-H2 (scFv, not shown: small tags and cut ends, also called S009-F3.80.22 humanized antibody VL1 + VH2) scFv: DIVMTQTPLSLPVTPGEPASISCRSSQSLEHNNGNTYLHWFLQKPGQSPQLLIYKVSNRFSGVPDRFSGSGSGTDFTLKISRVEAEDVGVYYCSQSTHVPFTFGQGTKLEIKGGGGSGGGGSGGGGSEVQLVQSGAEVKKPGATVKISCKASGYTFTDYEIHWVQQAPGKGLEWMGAFDPEIGGSAYNQKFKDRVTITADKSTSTAYMELSSLRSEDTAVYYCTDYYGSSSGYFDVWGQGTTVTVSS | 0.67 nM | 1790 MFI | 303 MFI | no binding | –
F3.80.22-H5 (scFv, not shown: small tags and cut ends, also called S009-F3.80.22 humanized antibody VL1a + VH1) scFv: DIVMTQTPLSLPVTPGEPASISCRSSQSLEHNDGNTYLHWFLQKPGQSPQLLIYKVSNRFSGVPDRFSGSGSGTDFTLKISRVEAEDVGVYYCSQSTHVPFTFGQGTKLEIKGGGGSGGGGSGGGGSEVQLVQSGAEVKKPGATVKISCKVSGYTFTDYEIHWVQQAPGKGLEWMGAFDPEIGGSAYNQKFKDRVTITADKSTDTAYMELSSLRSEDTAVYYCTDYYGSSSGYFDVWGQGTTVTVSS | 5.29 nM | 1370 MFI | 302 MFI | no binding | Kd [11]: 159 nM; koff [11]: 0.000565 s⁻¹; kon [11]: 3560 M⁻¹ s⁻¹
F3.80.22-H6 (scFv, not shown: small tags and cut ends, also called S009-F3.80.22 humanized antibody VL1a + VH2) scFv: DIVMTQTPLSLPVTPGEPASISCRSSQSLEHNDGNTYLHWFLQKPGQSPQLLIYKVSNRFSGVPDRFSGSGSGTDFTLKISRVEAEDVGVYYCSQSTHVPFTFGQGTKLEIKGGGGSGGGGSGGGGSEVQLVQSGAEVKKPGATVKISCKASGYTFTDYEIHWVQQAPGKGLEWMGAFDPEIGGSAYNQKFKDRVTITADKSTSTAYMELSSLRSEDTAVYYCTDYYGSSSGYFDVWGQGTTVTVSS | 8.39 nM | 1440 MFI | 338 MFI | no binding | –
F3.80.22-H7 (scFv, not shown: small tags and cut ends, also called S009-F3.80.22 humanized antibody VL1a + VH3) scFv: DIVMTQTPLSLPVTPGEPASISCRSSQSLEHNDGNTYLHWFLQKPGQSPQLLIYKVSNRFSGVPDRFSGSGSGTDFTLKISRVEAEDVGVYYCSQSTHVPFTFGQGTKLEIKGGGGSGGGGSGGGGSEVQLVQSGAEVKKPGATVKISCKASGYTFTDYEIHWVQQAPGKGLEWMGAFDPEIGGSAYNQKFKDRVTITADKSTSTAYMELSSLRSEDTAVYYCTDYYGSSSGYFDVWGTGTTVTVSS | 3.91 nM | 1530 MFI | 329 MFI | no binding | –
F3.80.22-H3 (scFv, not shown: small tags and cut ends, also called S009-F3.80.22 humanized antibody VL1 + VH3) scFv: DIVMTQTPLSLPVTPGEPASISCRSSQSLEHNNGNTYLHWFLQKPGQSPQLLIYKVSNRFSGVPDRFSGSGSGTDFTLKISRVEAEDVGVYYCSQSTHVPFTFGQGTKLEIKGGGGSGGGGSGGGGSEVQLVQSGAEVKKPGATVKISCKASGYTFTDYEIHWVQQAPGKGLEWMGAFDPEIGGSAYNQKFKDRVTITADKSTSTAYMELSSLRSEDTAVYYCTDYYGSSSGYFDVWGTGTTVTVSS | 4.41 nM | 1750 MFI | 330 MFI | no binding | –
S009-F7.25.19 chimeric antibody (antibody, human IgG1, kappa, V domains shown, Human-murine chimeric antibody, human IgG1/kappa constant regions) VH: QVQLQQPGTELVKPGASVKLSCKASGYTFTSYWMHWVKQRPGQGLEWIGNIIPSNGGTKYNEKFKSKATLTVDKSSSTAYMQLSSLTSEDSAVYYCSPHYYGGSPGFAYWGQGTLITVSA VL: DIVMTQSQKFMSTSVGDRVSVICKASQNVGTNVAWYQQKPGQSPKALIYSASYRYSGVPDRFTGSGSGTDFTLTISNVQSEDLAEYFCQQYNSYPLTFGGGTKLEIKR | – | – | – | – | OD450 [12]: 2.39; OD450 [13]: 2.48; OD450 [14]: 2.4; OD450 [15]: 2.32; OD450 [16]: 1.9; OD450 [17]: 1.25; OD450 [18]: 0.52; OD450 [19]: 0.06
S009-F7.21.16 (antibody, human IgG1, kappa, V domains shown, Human-murine chimeric antibody, human IgG1 heavy and kappa light constant regions) VH: QVQLQQPGTELVKPGASVKLSCKASGYTFTTFWMHWVKQRPGQGLEWIGGVNPTNGGTNYNEKFRTKATLTVDKSSTTADMQLSSLTSEDSAVYYCAPHYISSRPGFAYWGQGTLVTVSG VL: DIVMTQSQKFMSTSGGDRVSVTCKASQNVGTNVAWYQQKPGQSPKALIYSASYRYSGVPDRFTGSGSGTDFILTISNVQSEDLAEYFCQQYNSYPLTFGGGTKLEIKR | – | – | – | – | OD450 [3]: 2.75 OD; OD450 [4]: 2.52 OD; OD450 [5]: 2.5 OD; OD450 [6]: 2.92 OD; OD450 [7]: 1.32 OD; OD450 [8]: 0.71 OD; OD450 [9]: 0.31 OD; OD450 [10]: 0.08 OD
